Measured values taken from patent US20230051715A1 (MABWELL THERAPEUTICS, published 2023).
Changes are numbered by the printed parent chain. In names and notes the source's numbering stands. Blank lines part the entries; values can stand above or below the binder they belong to.

Columns and labels:
[1] = molecular target: T1, human C1s deletion mutant 2 (NHC) (human, UniProt P09871 16-437); test: ELISA, plate coated with 200 ng/well HuC1s(NHC), OD450nm
T1 construct: C-terminal 6xHis tag; also called HuC1s(NHC); huC1sNHC
T1 sequence: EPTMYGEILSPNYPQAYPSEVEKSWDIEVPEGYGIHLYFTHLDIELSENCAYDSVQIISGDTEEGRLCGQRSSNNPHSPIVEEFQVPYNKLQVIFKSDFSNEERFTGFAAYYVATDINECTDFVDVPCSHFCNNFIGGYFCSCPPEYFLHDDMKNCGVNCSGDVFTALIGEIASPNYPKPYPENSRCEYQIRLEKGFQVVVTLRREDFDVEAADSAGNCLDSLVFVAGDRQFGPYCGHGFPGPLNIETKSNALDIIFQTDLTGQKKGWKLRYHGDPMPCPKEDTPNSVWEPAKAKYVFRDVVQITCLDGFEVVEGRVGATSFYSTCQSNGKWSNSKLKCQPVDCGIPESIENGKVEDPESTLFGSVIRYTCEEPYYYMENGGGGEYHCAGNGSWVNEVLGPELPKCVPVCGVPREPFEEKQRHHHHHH
Method: ELISA was carried out by first coating 96-well plates with 200 ng/well of full-length or truncated C1s proteins overnight. The next morning, plates were blocked with SuperBlock T20 blocking buffer (Thermo Scientific 37536) for 1 h with gentle shaking. Then, various concentrations of anti-C1s antibodies diluted in SuperBlock T20 blocking buffer were added to the plates and incubated for 1 h with gentle shaking. Mouse IgG (Sigma-Aldrich 15381) and human IgG1 (BioXCell BP0297) were used as negative controls. The plates were washed before incubating with HRP conjugated secondary antibodies diluted in SuperBlock T20 blocking buffer (goat anti-mouse IgG (H+L) cross-adsorbed secondary antibody HRP (Invitrogen G-21040) or goat anti-human IgG antibody, HRP conjugate (Millipore AP309P)) for 1 h with gentle shaking. At last, the plates were washed and color developed with ELISA liquid HRP substrate (Sigma-Aldrich), followed by stopping the reaction with addition of 1M H₂SO₄ in the same volume as the ELISA liquid substrate. Bound antibody was measured by absorbance at OD₄₅₀ₙₘ.

[2] = molecular target: T2, rat C1s (produced in house) (rat, UniProt Q6P6T1 16-688); test: ELISA, plate coated with 200 ng/well RatC1s, OD450nm
T2 construct: also called RaC1s
T2 sequence: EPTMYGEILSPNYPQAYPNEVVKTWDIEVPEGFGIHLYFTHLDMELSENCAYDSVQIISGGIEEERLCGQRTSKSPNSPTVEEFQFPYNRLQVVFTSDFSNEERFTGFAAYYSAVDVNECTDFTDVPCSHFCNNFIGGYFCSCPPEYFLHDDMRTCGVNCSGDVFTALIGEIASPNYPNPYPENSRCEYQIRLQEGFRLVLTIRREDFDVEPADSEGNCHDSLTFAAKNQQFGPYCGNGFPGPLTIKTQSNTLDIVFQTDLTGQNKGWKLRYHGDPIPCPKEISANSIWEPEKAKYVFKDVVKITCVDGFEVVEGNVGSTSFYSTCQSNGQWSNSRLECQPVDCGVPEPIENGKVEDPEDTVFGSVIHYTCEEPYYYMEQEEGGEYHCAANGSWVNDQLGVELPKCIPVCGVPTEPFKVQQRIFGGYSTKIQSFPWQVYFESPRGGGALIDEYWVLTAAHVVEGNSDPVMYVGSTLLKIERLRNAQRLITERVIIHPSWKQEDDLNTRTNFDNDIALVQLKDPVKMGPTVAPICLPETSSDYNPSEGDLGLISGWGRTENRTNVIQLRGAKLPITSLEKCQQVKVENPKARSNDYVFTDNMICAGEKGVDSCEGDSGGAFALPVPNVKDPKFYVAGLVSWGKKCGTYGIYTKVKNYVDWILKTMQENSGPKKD
Method: The next morning, plates were blocked with SuperBlock T20 blocking buffer (Thermo Scientific 37536) for 1 h with gentle shaking. Then, various concentrations of anti-C1s antibodies diluted in SuperBlock T20 blocking buffer were added to the plates and incubated for 1 h with gentle shaking. Mouse IgG (Sigma-Aldrich I5381) and Human IgG1 (BioXCell BP0297) were used as negative controls. The plates were washed before incubating with HRP conjugated secondary antibodies diluted in SuperBlock T20 blocking buffer (goat anti-mouse IgG (H+L) cross-adsorbed secondary antibody HRP (Invitrogen G-21040) or goat anti-human IgG antibody, HRP conjugate (Millipore AP309P)) for 1 h with gentle shaking. At last, the plates were washed and color developed with ELISA liquid substrate (Sigma-Aldrich), followed by stopping the reaction with addition of the same volume of […] 1M H₂SO₄. Bound antibody was measured by absorbance at OD₄₅₀ₙₘ.

[3] = molecular target: T3, C1s in normal human serum (NHS, CompTech NHS) (human, UniProt P09871 16-688); test: cell-based or functional assay
T3 sequence (looked up): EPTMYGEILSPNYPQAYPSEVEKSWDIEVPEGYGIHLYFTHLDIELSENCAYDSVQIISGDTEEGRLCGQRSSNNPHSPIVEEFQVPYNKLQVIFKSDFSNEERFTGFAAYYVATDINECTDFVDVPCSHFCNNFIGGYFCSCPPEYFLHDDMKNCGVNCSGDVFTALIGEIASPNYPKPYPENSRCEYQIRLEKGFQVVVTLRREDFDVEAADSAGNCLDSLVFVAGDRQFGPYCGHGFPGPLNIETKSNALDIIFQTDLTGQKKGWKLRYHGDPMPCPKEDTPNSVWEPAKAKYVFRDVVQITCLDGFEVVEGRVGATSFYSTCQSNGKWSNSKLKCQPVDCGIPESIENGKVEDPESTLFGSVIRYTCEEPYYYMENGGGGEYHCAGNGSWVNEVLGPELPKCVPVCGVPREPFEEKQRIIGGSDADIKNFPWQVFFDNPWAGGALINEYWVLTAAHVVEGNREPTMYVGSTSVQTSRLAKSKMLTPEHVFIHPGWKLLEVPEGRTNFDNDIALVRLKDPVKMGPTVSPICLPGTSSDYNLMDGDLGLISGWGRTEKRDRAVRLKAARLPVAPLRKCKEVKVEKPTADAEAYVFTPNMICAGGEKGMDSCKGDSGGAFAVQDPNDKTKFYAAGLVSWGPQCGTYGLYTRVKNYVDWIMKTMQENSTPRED

B1: Anti-C1s antibody 2-7 (antibody, human IgG1, kappa, V domains shown)
VH: EVKLEESGGGLVPPGGSMKLSCVASGFTFSNYFMNWVRQSPEKGLEWVAEIRLKFTNYATHYAESVEGRFTISRDDSKSSVYLQMNNLRAEDTGIYYCTRDYGSRNGYFDYWGQGTTLTVSS
VL: DIVMTQAAPSVPVTPGESVSISCRSSKSLLHSNGNTFLYWFLQRPGQSPQLLIYRMSNLASGVPDRFSGSGSGTAFTLRVSRVEAEDVGIYYCMQHLEYPYTFGGGTKLEIKT
notes: the HC/LC entries may hold it too; also called clone 2-7
EC50 [1]: 0.009 µg/mL | binding result [2]: no binding (tested: 1000 ng/ml (Log 3))

B3: Anti-C1s antibody 2-8 (antibody, V domains shown)
VH: EVQLQQSGAELVRPGALVKLSCKASGFNIKEYYMHWVKQRPEQGLEWIGWIDPENGDTIYDPKFQGKASITADTSSNTAYLQLSSLTSEDTAVYYCARSRLFFAYWGQGTLVTVSA
VL: DIVMTQSHKFMSTSVGDRVSFTCKASQDVRTAVDWYQQKPGQSPKLLIYSASYRYTGVPDRFTGTGSGTDFTFTISSVQAEDLAVYFCQQQYTTPYTFGGGTKLEIKT
notes: the HC/LC entries may hold it too; also called clone 2-8
EC50 [1]: 0.012 µg/mL | EC50 [2]: 0.063 µg/mL

B4: Anti-C1s antibody hz2-8 (H1L2 G80A) (antibody, V domains shown)
VH: QVQLVQSGAEVKKPGASVKVSCKASGFNIKEYYMHWVRQAPEQGLEWMGWIDPENADTIYAQKFQGRVTITADTSTNTAYMELSSLRSEDTAVYYCARSRLFFAYWGQGTLVTVSS
VL: DIQMTQSPKSLSASVGDRVTITCRASQDVRTALDWYQQKPGQSPKLLIYSASYRYSGVPSRFSGSGSGTDFTLTISSLQPEDFATYYCQQQYTTPYTFGQGTKLEIKR
notes: Humanized variant with G80A in HC CDR2 (already in the entry), human IgG1 / kappa
IC50, inhibition of IgM-induced C4 deposition from NHS [3]: 0.5 µg/mL

Now from value to binder:

EC50 [1]: 0.006 µg/mL | binding result [2]: no binding (tested: 1000 ng/ml (Log 3)) | IC50, inhibition of IgM-induced C4 deposition from NHS [3]: 1.1 µg/mL | IC50, inhibition of human complement-mediated lysis of EA [3]: 4.1 µg/mL
B2: Anti-C1s antibody hz2-7(H1L2) (antibody, V domains shown)
VH: EVQLLESGGGLVQPGGSLRLSCAASGFTFSNYFMNWVRQAPGKGLEWVSEIRLKFTNYATHYADSVKGRFTISRDDSKSTLYLQMNSLRAEDTAVYYCTRDYGSRNGYFDYWGQGTLVTVSS
VL: DIVMTQTPLSLPVTPGEPASISCRSSKSLLHSNGNTFLYWFLQKPGQSPQLLIYRMSNLASGVPDRFSGSGSGTDFTLKISRVEAEDVGVYYCMQHLEYPYTFGGGTKLEIKR
notes: Humanized, human IgG1 / kappa; also called hz2-7(1L2)

EC50 [2]: 0.105 µg/mL | IC50, inhibition of IgM-induced C4 deposition from NHS [3]: 0.4 µg/mL
B5: Anti-C1s antibody hz2-8 (H1L2 G80A/T82A) (antibody, V domains shown)
VH: B4 VH with T58A
VL: B4 VL
notes: Humanized variant with G80A and T82A in HC CDR2 (already in the entry), human IgG1 / kappa
